US20160195533

Key:
[1] = biological target: Flag-tagged Snail1 (pCMV-Tag2B N-terminal Flag-tagged Snail1 expression vector, Addgene)
[2] = biological target: Strep-tagged Snail1 (pEXPR-IBA105-Snail1)
[3] = biological target: Snail1, endogenous protein of A549, HCC44, HEK293T or H1299 cells
Chain of Snail1, endogenous protein of A549, HCC44, HEK293T or H1299 cells (chain, as listed by the source): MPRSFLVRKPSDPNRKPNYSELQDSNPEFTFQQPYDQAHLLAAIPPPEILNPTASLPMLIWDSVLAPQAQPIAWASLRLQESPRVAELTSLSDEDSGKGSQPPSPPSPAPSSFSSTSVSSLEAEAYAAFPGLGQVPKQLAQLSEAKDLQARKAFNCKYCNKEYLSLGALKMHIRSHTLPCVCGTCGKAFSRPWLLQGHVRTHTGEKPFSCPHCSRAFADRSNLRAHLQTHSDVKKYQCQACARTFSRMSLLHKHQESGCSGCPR

Chain of Flag-tagged Snail1 (pCMV-Tag2B N-terminal Flag-tagged Snail1 expression vector, Addgene) (chain, as listed by the source): as above
Chain of Strep-tagged Snail1 (pEXPR-IBA105-Snail1) (chain, as listed by the source): as above

B1: Strep-tagged ERS-WHEP domain of EPRS (pEXPR-IBA105-ERS) (protein)
chain: MATLSLTVNSGDPPLGALLAVEHVKDDVSISVEEGKENILHVSENVIFTDVNSILRYLARVATTAGLYGSNLMEHTEIDHWLEFSATKLSSCDSFTSTINELNHCLSLRTYLVGNSLSLADLCVWATLKGNAAWQEQLKQKKAPVHVKRWFGFLEAQQAFQSVGTKWDVSTTKARVAPEKKQDVGKFVELPGAEMGKVTVRFPPEASGYLHIGHAKAALLNQHYQVNFKGKLIMRFDDTNPEKEKEDFEKVILEDVAMLHIKPDQFTYTSDHFETIMKYAEKLIQEGKAYVDDTPAEQMKAEREQRIDSKHRKNPIEKNLQMWEEMKKGSQFGQSCCLRAKIDMSSNNGCMRDPTLYRCKIQPHPRTGNKYNVYPTYDFACPIVDSIEGVTHALRTTEYHDRDEQFYWIIEALGIRKPYIWEYSRLNLNNTVLSKRKLTWFVNEGLVDGWDDPRFPTVRGVLRRGMTVEGLKQFIAAQGSSRSVVNMEWDKIWAFNKKVIDPVAPRYVALLKKEVIPVNVPEAQEEMKEVAKHPKNPEVGLKPVWYSPKVFIEGADAETFSEGEMVTFINWGNLNITKIHKNADGKIISLDAKLNLENKDYKKTTKVTWLAETTHALPIPVICVTYEHLITKPVLGKDEDFKQYVNKNSKHEELMLGDPCLKDLKKGDIIQLQRRGFFICDQPYEPVSPYSCKEAPCVLIYIPDGHTKEMPTSGSKEKTKVEATKNETSAPFKERPTPSLNNNCTTSEDSLVLYNRVAVQGDVVRELKAKKAPKEDVDAAVKQLLSLKAEYKEKTGQEYKPGNPPAEIGQNISSNSSASILESKSLYDEVAAQGEVVRKLKAEKSPKAKINEAVECLLSLKAQYKEKTGKEYIPGQPPLSQSSDSSPTRNSEPAGLETPEAKVLFDKVASQGEVVRKLKTEKAPKDQVDIAVQELLQLKAQYKSLIGVEYKPVSATGAEDKDKKKKEKENKSEKQNKPQKQNDGQRKDPSKNQGGGLSSS
Snail1 stability, anti-Flag immunoblot (HEK293T) [1]: the WHEP-PRS fragment rather than ERS-WHEP fragment in the EPRS more contributed to the Snail1 stability

B2: Strep-tagged WHEP-PRS domain of EPRS (pEXPR-IBA105-PRS) (protein)
chain: VEATKNETSAPFKERPTPSLNNNCTTSEDSLVLYNRVAVQGDVVRELKAKKAPKEDVDAAVKQLLSLKAEYKEKTGQEYKPGNPPAEIGQNISSNSSASILESKSLYDEVAAQGEVVRKLKAEKSPKAKINEAVECLLSLKAQYKEKTGKEYIPGQPPLSQSSDSSPTRNSEPAGLETPEAKVLFDKVASQGEVVRKLKTEKAPKDQVDIAVQELLQLKAQYKSLIGVEYKPVSATGAEDKDKKKKEKENKSEKQNKPQKQNDGQRKDPSKNQGGGLSSSGAGEGQGPKKQTRLGLEAKKEENLADWYSQVITKSEMIEYHDISGCYILRPWAYAIWEAIKDFFDAEIKKLGVENCYFPMFVSQSALEKEKTHVADFAPEVAWVTRSGKTELAEPIAIRPTSETVMYPAYAKWVQSHRDLPIKLNQWCNVVRWEFKHPQPFLRTREFLWQEGHSAFATMEEAAEEVLQILDLYAQVYEELLAIPVVKGRKTEKEKFAGGDYTTTIEAFISASGRAIQGGTSHHLGQNFSKMFEIVFEDPKIPGEKQFAYQNSWGLTTRTIGVMTMVHGDNMGLVLPPRVACVQVVIIPCGITNALSEEDKEALIAKCNDYRRRLLSVNIRVRADLRDNYSPGWKFNHWELKGVPIRLEVGPRDMKSCQFVAVRRDTGEKLTVAENEAETKLQAILEDIQVTLFTRASEDLKTHMVVANTMEDFQKILDSGKIVQIPFCGEIDCEDWIKKTTARDQDLEPGAPSMGAKSLCIPFKPLCELQPGAKCVCGKNPAKYYTLFGRSY
Snail1 stability, anti-Flag immunoblot (HEK293T) [1]: the WHEP-PRS fragment rather than ERS-WHEP fragment in the EPRS more contributed to the Snail1 stability

B3: 2× Strep-tagged EPRS (pEXPR-2×IBA105-EPRS) (protein)
chain: MATLSLTVNSGDPPLGALLAVEHVKDDVSISVEEGKENILHVSENVIFTDVNSILRYLARVATTAGLYGSNLMEHTEIDHWLEFSATKLSSCDSFTSTINELNHCLSLRTYLVGNSLSLADLCVWATLKGNAAWQEQLKQKKAPVHVKRWFGFLEAQQAFQSVGTKWDVSTTKARVAPEKKQDVGKFVELPGAEMGKVTVRFPPEASGYLHIGHAKAALLNQHYQVNFKGKLIMRFDDTNPEKEKEDFEKVILEDVAMLHIKPDQFTYTSDHFETIMKYAEKLIQEGKAYVDDTPAEQMKAEREQRIDSKHRKNPIEKNLQMWEEMKKGSQFGQSCCLRAKIDMSSNNGCMRDPTLYRCKIQPHPRTGNKYNVYPTYDFACPIVDSIEGVTHALRTTEYHDRDEQFYWIIEALGIRKPYIWEYSRLNLNNTVLSKRKLTWFVNEGLVDGWDDPRFPTVRGVLRRGMTVEGLKQFIAAQGSSRSVVNMEWDKIWAFNKKVIDPVAPRYVALLKKEVIPVNVPEAQEEMKEVAKHPKNPEVGLKPVWYSPKVFIEGADAETFSEGEMVTFINWGNLNITKIHKNADGKIISLDAKLNLENKDYKKTTKVTWLAETTHALPIPVICVTYEHLITKPVLGKDEDFKQYVNKNSKHEELMLGDPCLKDLKKGDIIQLQRRGFFICDQPYEPVSPYSCKEAPCVLIYIPDGHTKEMPTSGSKEKTKVEATKNETSAPFKERPTPSLNNNCTTSEDSLVLYNRVAVQGDVVRELKAKKAPKEDVDAAVKQLLSLKAEYKEKTGQEYKPGNPPAEIGQNISSNSSASILESKSLYDEVAAQGEVVRKLKAEKSPKAKINEAVECLLSLKAQYKEKTGKEYIPGQPPLSQSSDSSPTRNSEPAGLETPEAKVLFDKVASQGEVVRKLKTEKAPKDQVDIAVQELLQLKAQYKSLIGVEYKPVSATGAEDKDKKKKEKENKSEKQNKPQKQNDGQRKDPSKNQGGGLSSSGAGEGQGPKKQTRLGLEAKKEENLADWYSQVITKSEMIEYHDISGCYILRPWAYAIWEAIKDFFDAEIKKLGVENCYFPMFVSQSALEKEKTHVADFAPEVAWVTRSGKTELAEPIAIRPTSETVMYPAYAKWVQSHRDLPIKLNQWCNVVRWEFKHPQPFLRTREFLWQEGHSAFATMEEAAEEVLQILDLYAQVYEELLAIPVVKGRKTEKEKFAGGDYTTTIEAFISASGRAIQGGTSHHLGQNFSKMFEIVFEDPKIPGEKQFAYQNSWGLTTRTIGVMTMVHGDNMGLVLPPRVACVQVVIIPCGITNALSEEDKEALIAKCNDYRRRLLSVNIRVRADLRDNYSPGWKFNHWELKGVPIRLEVGPRDMKSCQFVAVRRDTGEKLTVAENEAETKLQAILEDIQVTLFTRASEDLKTHMVVANTMEDFQKILDSGKIVQIPFCGEIDCEDWIKKTTARDQDLEPGAPSMGAKSLCIPFKPLCELQPGAKCVCGKNPAKYYTLFGRSY
protein expression level of Snail1, anti-Flag immunoblot (HEK293T) [1]: the protein expression level of Snail1 increased more when overexpressed together with EPRS through co-transfection than when overexpressed alone

B4: Flag-tagged EPRS (human Flag-tagged EPRS expression vector, Origene) (protein)
chain: B3 chain
ubiquitination of Snail1 (streptavidin pull-down, anti-HA immunoblot) [2]: the ubiquitination was reduced in the EPRS overexpressed experimental group

B5: glutamyl-prolyl-tRNA synthetase (EPRS), endogenous protein of A549 or HEK293T cells (protein)
chain: B3 chain
EMT markers after EPRS knock-down (immunoblot, A549) [3]: at the time of EPRS knock-down, the Snail1 and p-SMAD3 was reduced and the E-cadherin was increased. This indicates that the EMT progress was suppressed.
